Article PMC7144941

T1: i-mEndoG H97A (catalytically inactive mouse endonuclease G) (mouse, UniProt O08600 42-294, H138A)
T1 sequence: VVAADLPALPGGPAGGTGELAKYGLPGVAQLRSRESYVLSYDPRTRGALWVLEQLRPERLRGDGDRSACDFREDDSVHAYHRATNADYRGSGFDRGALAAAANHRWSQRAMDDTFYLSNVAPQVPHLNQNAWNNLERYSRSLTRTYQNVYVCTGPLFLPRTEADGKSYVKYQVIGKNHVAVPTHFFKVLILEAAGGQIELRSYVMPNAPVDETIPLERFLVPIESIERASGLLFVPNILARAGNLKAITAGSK


Legend:
[1] = target: catalytically inactive H97A mutant of mouse endonuclease G lacking the N-terminal mitochondrial localization sequence (mouse); experiment: crystal structure
[2] = target: T1, i-mEndoG H97A (catalytically inactive …); experiment: X-ray crystallography

| stoichiometry N [1] | Molecule | binding result [2] |
| --- | --- | --- |
| 2 | catalytically inactive H97A mutant of mouse endonuclease G lacking the N-terminal mitochondrial localization sequence (enzyme) | – |
| – | decanucleotide d(CCGGCGCCGG) (dsDNA) DNA 1: CCGGCGCCGG DNA 2: CCGGCGCCGG | binds |
